Laboratory results: patent publication EP4810611A2

Assays:
TRBV9+TRAV38 antigen [1] = assay: BLI (OctetRed 96), antigen on AR2G sensors, antibody 126-2 nM, 1:1 model; run 3
TRBV9+TRAV26 antigen [2] = assay: as above
TRBV9+TRAV38 antigen [3] = assay: BLI (OctetRed 96), antigen on AR2G sensors, antibody 126-2 nM, 1:1 model; run 2
TRBV9+TRAV26 antigen [4] = assay: as above
TRBV9+TRAV38 antigen [5] = assay: BLI (OctetRed 96), antigen on AR2G sensors, antibody 126-2 nM, 1:1 model; run 1
TRBV9+TRAV26 antigen [6] = assay: as above
[7] = molecular target: human T cell receptor with a beta-chain of the TRBV9 family, on T lymphocytes of the mononuclear fraction of human blood (human); assay: flow cytometry, FITC-labelled antibody on human blood mononuclear cells, 5 and 0.5 ng/µl
Sequence of human T cell receptor with a beta-chain of the TRBV9 family, on T lymphocytes of the mononuclear fraction of human blood (human) (A0A0B4J1U6 22-114): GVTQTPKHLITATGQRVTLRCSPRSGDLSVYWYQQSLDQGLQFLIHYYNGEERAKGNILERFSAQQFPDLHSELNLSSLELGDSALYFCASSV

Row | Kd (TRBV9+TRAV38 antigen [1]) | koff (TRBV9+TRAV38 antigen [1]) | kon (TRBV9+TRAV38 antigen [1]) | Kd (TRBV9+TRAV26 antigen [2]) | koff (TRBV9+TRAV26 antigen [2]) | kon (TRBV9+TRAV26 antigen [2]) | Kd (TRBV9+TRAV38 antigen [3]) | koff (TRBV9+TRAV38 antigen [3]) | kon (TRBV9+TRAV38 antigen [3]) | Kd (TRBV9+TRAV26 antigen [4]) | koff (TRBV9+TRAV26 antigen [4]) | kon (TRBV9+TRAV26 antigen [4]) | Kd (TRBV9+TRAV38 antigen [5]) | koff (TRBV9+TRAV38 antigen [5]) | kon (TRBV9+TRAV38 antigen [5]) | Kd (TRBV9+TRAV26 antigen [6]) | koff (TRBV9+TRAV26 antigen [6]) | kon (TRBV9+TRAV26 antigen [6]) | staining, share of the CD3-positive fraction [7] | Binder
1 | 0.529 nM | 0.000196 s⁻¹ | 371000 M⁻¹ s⁻¹ | 0.204 nM | 0.000114 s⁻¹ | 559000 M⁻¹ s⁻¹ | 0.365 nM | 0.000205 s⁻¹ | 562000 M⁻¹ s⁻¹ | 0.278 nM | 0.000183 s⁻¹ | 658000 M⁻¹ s⁻¹ | 0.414 nM | 0.000183 s⁻¹ | 441000 M⁻¹ s⁻¹ | 0.22 nM | 0.000113 s⁻¹ | 515000 M⁻¹ s⁻¹ | – | anti-TRBV9-1 monoclonal antibody (antibody, human IgG1, kappa, V domains shown) VH: QIQLVQSGPELREPGESVKLSCKASGYTFTDYLVHWVKQAPGKGLKWMGWINTYTGTPTYADDFEGRFVFSLEASASTANLQISNLKNEDTATYFCARSWRRGLRGLGFDYWGQGVFVTVSS VL: DVQMTQSPYNLAASPGESVSINCKASKSINKYLAWYQQKPGKPNKLLIYDGSTLQSGIPSRFSGSGSGTDFTLTIRGLEPEDFGLYYCQQHNEYPPTFGAGTKLELKR
2 | – | – | – | – | – | – | 0.4 nM | 9.16e-05 s⁻¹ | 229000 M⁻¹ s⁻¹ | 0.582 nM | 9.8e-05 s⁻¹ | 168000 M⁻¹ s⁻¹ | 0.311 nM | 9.61e-05 s⁻¹ | 309000 M⁻¹ s⁻¹ | 0.319 nM | 9.16e-05 s⁻¹ | 287000 M⁻¹ s⁻¹ | – | anti-TRBV9-3 monoclonal antibody (antibody, human IgG1, kappa, V domains shown) VH: QIQLVQSGPELREPGESVKLSCKASGYTFTDYLVHWVKQAPGKGLKWMGWINTYTGTPTYADDFEGRFVFSLEASASTANLQISNLKNEDTATYFCARSWRRGIRGLGFDYWGQGVFVTVSS VL: DVQMTQSPYNLAASPGESVSINCKASKSINKYLAWYQQKPGKPNKLLIYDGSTLQSGIPSRFSGSGSGTDFTLTIRGLEPEDFGLYYCQQHNEYPPTFGAGTKLELKR
3 | – | – | – | – | – | – | < 0.001 nM | < 1e-07 s⁻¹ | 476000 M⁻¹ s⁻¹ | < 0.001 nM | < 1e-07 s⁻¹ | 579000 M⁻¹ s⁻¹ | < 0.001 nM | < 1e-07 s⁻¹ | 713000 M⁻¹ s⁻¹ | < 0.001 nM | < 1e-07 s⁻¹ | 865000 M⁻¹ s⁻¹ | – | anti-TRBV9-4 monoclonal antibody (antibody, human IgG1, kappa, V domains shown) VH: QIQLVQSGPELREPGESVKLSCKASGYTFTDYLVHWVKQAPGKGLKWMGWINTYTGTPTYADDFEGRFVFSLEASASTANLQISNLKNEDTATYFCARSWRRGIRGIGFDYWGQGVFVTVSS VL: DVQMTQSPYNLAASPGESVSINCKASKSINKYLAWYQQKPGKPNKLLIYDGSTLQSGIPSRFSGSGSGTDFTLTIRGLEPEDFGLYYCQQHNEYPPTFGAGTKLELKR
4 | – | – | – | – | – | – | < 0.001 nM | < 1e-07 s⁻¹ | 289000 M⁻¹ s⁻¹ | < 0.001 nM | < 1e-07 s⁻¹ | 381000 M⁻¹ s⁻¹ | < 0.001 nM | < 1e-07 s⁻¹ | 397000 M⁻¹ s⁻¹ | 0.0135 nM | 6.02e-06 s⁻¹ | 447000 M⁻¹ s⁻¹ | 2.9% | anti-TRBV9-2 monoclonal antibody (antibody, human IgG1, kappa, V domains shown) VH: QIQLVQSGPELREPGESVKLSCKASGYTFTDYLVHWVKQAPGKGLKWMGWINTYTGTPTYADDFEGRFVFSLEASASTANLQISNLKNEDTATYFCARSWRRGLRGIGFDYWGQGVFVTVSS VL: DVQMTQSPYNLAASPGESVSINCKASKSINKYLAWYQQKPGKPNKLLIYDGSTLQSGIPSRFSGSGSGTDFTLTIRGLEPEDFGLYYCQQHNEYPPTFGAGTKLELKR
